# Laboratory results reported in patent US20040235115A1.
# B1: loop 3 chimeric microplasminogen (protein)
# chain: APSFDCGKPQVEPKKCPGRVVGGCVAHPHSWPWQVSLRLNGAHFCGGTLISPEWVLTAAHCLEKSPRPSSYKVILGAHQEVNLEPHVQEIEVSRLFLEPTRKDIALLKLSSPAVITDKVIPACLPSPNYVVADRTECFITGWGETQGTFGAGLLKEAQLPVIENKVCNRYEFLNGRVQSTELCAGHLAGGTDSCQGDSGGPLVCFEKDKYILQGVTSWGLGCARPNKPGVYVRVSRFVTWIEGVMRNN
# B2: loop 7 chimeric microplasminogen (protein)
# chain: APSFDCGKPQVEPKKCPGRVVGGCVAHPHSWPWQVSLRTRFGMHFCGGTLISPEWVLTAAHCLEKSPRPSSYKVILGAHQEVNLEPHVQEIEVSRLFLHPDSQPDTIDHDIALLKLSSPAVITDKVIPACLPSPNYVVADRTECFITGWGETQGTFGAGLLKEAQLPVIENKVCNRYEFLNGRVQSTELCAGHLAGGTDSCQGDSGGPLVCFEKDKYILQGVTSWGLGCARPNKPGVYVRVSRFVTWIEGVMRNN
# B3: loop 5 chimeric microplasminogen (protein)
# chain: APSFDCGKPQVEPKKCPGRVVGGCVAHPHSWPWQVSLRTRFGMHFCGGTLISPEWVLTAAHCLEDAADGKVKVILGAHQEVNLEPHVQEIEVSRLFLEPTRKDIALLKLSSPAVITDKVIPACLPSPNYVVADRTECFITGWGETQGTFGAGLLKEAQLPVIENKVCNRYEFLNGRVQSTELCAGHLAGGTDSCQGDSGGPLVCFEKDKYILQGVTSWGLGCARPNKPGVYVRVSRFVTWIEGVMRNN
# Biological target: T1, streptokinase, P00779
# T1 chain: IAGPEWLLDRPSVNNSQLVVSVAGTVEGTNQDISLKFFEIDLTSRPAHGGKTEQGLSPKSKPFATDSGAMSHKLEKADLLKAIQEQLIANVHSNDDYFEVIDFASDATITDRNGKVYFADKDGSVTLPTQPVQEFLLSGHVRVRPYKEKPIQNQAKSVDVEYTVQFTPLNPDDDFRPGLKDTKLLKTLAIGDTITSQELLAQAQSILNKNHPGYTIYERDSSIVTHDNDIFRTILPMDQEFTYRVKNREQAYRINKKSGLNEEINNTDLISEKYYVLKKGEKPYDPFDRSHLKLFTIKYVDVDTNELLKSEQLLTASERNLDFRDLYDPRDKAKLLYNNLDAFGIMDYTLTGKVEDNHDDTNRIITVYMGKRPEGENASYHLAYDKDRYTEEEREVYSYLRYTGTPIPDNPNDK
row,Protein,"activation of microplasminogen by streptokinase (S2251 cleavage, A405)"
1,B1,all three loop mutants were not efficiently activated by the bacterial plasminogen activator streptokinase
2,B2,all three loop mutants were not efficiently activated by the bacterial plasminogen activator streptokinase
3,B3,all three loop mutants were not efficiently activated by the bacterial plasminogen activator streptokinase
